Source: PMC2879509

How the values were obtained:
[1] = target: MSL2-ΔPro/Bas (Drosophila melanogaster) (UniProt P50534); experiment: EMSA
MSL2 [2] = target: T1, MSL2 (Drosophila melanogaster, UniProt P50534 1-773); experiment: EMSA
T1 sequence: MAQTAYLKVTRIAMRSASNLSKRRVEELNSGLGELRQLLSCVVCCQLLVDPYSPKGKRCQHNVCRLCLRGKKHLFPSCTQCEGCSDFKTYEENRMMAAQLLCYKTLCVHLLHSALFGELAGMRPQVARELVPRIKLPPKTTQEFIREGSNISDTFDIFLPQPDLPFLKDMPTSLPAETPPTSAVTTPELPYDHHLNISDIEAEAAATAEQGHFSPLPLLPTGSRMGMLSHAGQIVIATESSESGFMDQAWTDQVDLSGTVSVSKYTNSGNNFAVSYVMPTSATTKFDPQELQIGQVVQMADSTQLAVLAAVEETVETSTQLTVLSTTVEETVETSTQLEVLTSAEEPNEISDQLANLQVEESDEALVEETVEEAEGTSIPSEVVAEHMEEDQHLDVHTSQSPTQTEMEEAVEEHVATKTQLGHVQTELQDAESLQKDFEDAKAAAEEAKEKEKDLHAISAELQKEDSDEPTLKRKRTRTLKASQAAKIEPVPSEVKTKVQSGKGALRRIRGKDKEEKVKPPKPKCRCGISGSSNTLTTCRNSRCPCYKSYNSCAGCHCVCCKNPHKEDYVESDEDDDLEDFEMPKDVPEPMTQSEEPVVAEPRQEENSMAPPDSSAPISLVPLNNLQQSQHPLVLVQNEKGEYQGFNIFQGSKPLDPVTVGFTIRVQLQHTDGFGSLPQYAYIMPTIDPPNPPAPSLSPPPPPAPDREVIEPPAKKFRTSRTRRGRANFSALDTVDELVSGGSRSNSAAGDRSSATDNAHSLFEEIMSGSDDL

MSL2-ΔRING = target: T2, MSL2-ΔRING (Drosophila melanogaster, UniProt P50534 1-40+86-773, internal_change); experiment: EMSA
T2 sequence: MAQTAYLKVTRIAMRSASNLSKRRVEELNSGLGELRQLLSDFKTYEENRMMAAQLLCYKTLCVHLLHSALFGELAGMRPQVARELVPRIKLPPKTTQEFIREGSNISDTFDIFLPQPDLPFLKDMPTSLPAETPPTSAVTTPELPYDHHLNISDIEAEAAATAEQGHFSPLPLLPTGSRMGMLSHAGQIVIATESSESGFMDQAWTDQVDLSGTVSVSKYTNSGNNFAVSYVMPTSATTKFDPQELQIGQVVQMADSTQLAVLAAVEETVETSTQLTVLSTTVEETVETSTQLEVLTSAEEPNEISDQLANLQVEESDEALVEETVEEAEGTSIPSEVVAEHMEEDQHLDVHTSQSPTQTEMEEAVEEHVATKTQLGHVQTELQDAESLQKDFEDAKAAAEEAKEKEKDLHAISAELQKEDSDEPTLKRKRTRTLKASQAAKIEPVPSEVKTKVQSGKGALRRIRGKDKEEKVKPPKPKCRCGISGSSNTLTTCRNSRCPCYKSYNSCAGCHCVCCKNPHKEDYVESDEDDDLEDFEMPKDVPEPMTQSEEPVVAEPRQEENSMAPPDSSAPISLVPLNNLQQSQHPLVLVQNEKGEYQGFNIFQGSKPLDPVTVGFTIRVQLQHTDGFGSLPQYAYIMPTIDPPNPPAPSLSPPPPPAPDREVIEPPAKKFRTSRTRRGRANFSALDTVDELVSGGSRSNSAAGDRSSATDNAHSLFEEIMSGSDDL

MSL2-ΔCXC = target: T3, MSL2-ΔCXC (Drosophila melanogaster, UniProt P50534 1-519+572-773, internal_change); experiment: EMSA
T3 sequence: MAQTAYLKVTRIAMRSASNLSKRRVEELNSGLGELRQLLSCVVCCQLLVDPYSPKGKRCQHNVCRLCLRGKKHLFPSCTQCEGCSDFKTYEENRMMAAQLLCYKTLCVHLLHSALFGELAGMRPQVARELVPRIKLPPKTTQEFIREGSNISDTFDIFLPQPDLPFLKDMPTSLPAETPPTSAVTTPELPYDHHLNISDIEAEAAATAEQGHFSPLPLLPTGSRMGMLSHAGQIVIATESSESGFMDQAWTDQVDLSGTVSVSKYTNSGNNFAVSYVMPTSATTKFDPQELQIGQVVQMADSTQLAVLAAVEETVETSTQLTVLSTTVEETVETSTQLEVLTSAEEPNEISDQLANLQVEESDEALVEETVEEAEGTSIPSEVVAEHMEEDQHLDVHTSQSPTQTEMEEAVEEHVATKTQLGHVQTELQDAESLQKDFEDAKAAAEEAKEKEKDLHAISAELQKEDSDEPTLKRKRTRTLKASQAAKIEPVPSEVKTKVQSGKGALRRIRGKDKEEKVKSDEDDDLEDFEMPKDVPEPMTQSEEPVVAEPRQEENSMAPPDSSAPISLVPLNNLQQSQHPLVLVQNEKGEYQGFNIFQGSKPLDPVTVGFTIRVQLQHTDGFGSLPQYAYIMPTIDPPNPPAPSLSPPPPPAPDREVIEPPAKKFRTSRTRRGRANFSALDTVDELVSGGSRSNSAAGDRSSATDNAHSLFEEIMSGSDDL

MSL2 [3] = target: T1, MSL2; experiment: competition

UGCGGCCAUCUCUUUCGUUUUGAUGUUUCUACGCCAUGUG / CACAUGGCGUAGAAACAUCAAAACGAAAGAGAUGGCCGCA [DBF12-L15 dsRNA 40 bp]
Kd [1]: 37 nM

B1: DBF12-L15 dsRNA 40 bp (dsRNA)
RNA 1: UGCGGCCAUCUCUUUCGUUUUGAUGUUUCUACGCCAUGUG
RNA 2: CACAUGGCGUAGAAACAUCAAAACGAAAGAGAUGGCCGCA
Kd (MSL2 [2]): 21 ± 4 nM | Kd (MSL2-ΔRING): 23 ± 5 nM | Kd (MSL2-ΔCXC): 29 ± 12 nM | IC50 (MSL2 [3]): 36 ± 8 nM
